From US20140072613A1 (published 2014)

T1: LKB1(h) (human, UniProt Q15831 1-433)
T1 sequence (looked up): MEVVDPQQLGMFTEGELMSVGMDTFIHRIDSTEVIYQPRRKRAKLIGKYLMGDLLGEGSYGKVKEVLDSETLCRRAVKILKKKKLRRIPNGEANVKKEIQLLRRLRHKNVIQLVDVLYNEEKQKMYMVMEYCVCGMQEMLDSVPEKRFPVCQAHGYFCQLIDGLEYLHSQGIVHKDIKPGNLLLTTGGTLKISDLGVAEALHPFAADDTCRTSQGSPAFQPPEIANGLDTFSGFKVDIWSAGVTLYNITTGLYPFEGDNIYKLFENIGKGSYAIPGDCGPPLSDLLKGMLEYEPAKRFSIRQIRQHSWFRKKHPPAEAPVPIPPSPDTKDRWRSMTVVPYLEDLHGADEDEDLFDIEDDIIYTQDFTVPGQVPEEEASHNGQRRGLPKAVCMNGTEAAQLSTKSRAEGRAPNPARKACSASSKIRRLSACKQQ

T2: Tec(h)activated (human, UniProt P42680 1-631, limits assumed)
T2 sequence (looked up): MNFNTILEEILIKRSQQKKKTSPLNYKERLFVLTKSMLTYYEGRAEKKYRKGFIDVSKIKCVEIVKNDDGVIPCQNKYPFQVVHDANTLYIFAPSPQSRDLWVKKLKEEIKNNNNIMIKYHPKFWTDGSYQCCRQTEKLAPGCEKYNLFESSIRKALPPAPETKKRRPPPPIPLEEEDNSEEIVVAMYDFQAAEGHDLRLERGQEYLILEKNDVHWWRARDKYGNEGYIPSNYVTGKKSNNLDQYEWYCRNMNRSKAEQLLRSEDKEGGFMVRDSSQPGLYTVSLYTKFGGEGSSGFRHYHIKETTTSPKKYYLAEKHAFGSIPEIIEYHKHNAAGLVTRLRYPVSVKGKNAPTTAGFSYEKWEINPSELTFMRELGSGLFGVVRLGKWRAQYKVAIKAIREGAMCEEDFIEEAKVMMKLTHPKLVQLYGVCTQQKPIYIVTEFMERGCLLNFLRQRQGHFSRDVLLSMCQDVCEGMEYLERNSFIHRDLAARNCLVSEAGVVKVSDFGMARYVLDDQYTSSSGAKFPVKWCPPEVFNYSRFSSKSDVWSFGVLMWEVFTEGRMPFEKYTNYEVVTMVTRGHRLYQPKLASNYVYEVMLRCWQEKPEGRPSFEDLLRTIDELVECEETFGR

T3: PKCι(h) (human, UniProt P41743 1-596)
T3 sequence (looked up): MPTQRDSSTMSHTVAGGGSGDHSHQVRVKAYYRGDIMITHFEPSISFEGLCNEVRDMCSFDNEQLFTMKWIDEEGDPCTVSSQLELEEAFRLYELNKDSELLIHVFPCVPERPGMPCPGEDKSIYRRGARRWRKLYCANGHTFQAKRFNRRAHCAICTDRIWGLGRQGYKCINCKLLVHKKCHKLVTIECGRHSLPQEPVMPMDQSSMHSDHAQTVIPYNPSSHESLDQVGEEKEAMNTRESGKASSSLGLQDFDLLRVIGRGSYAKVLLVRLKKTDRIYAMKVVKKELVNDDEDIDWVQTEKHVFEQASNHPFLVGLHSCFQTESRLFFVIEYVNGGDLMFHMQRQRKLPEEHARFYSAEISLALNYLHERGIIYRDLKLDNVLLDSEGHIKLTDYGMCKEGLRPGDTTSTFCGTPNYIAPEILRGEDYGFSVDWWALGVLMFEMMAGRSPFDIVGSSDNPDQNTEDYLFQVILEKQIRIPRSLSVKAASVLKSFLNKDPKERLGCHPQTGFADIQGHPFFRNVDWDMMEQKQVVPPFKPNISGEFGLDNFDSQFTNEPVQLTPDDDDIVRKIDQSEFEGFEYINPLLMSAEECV

T4: MRCKβ(h) (human, UniProt Q9Y5S2 1-473, limits assumed)
T4 sequence (looked up): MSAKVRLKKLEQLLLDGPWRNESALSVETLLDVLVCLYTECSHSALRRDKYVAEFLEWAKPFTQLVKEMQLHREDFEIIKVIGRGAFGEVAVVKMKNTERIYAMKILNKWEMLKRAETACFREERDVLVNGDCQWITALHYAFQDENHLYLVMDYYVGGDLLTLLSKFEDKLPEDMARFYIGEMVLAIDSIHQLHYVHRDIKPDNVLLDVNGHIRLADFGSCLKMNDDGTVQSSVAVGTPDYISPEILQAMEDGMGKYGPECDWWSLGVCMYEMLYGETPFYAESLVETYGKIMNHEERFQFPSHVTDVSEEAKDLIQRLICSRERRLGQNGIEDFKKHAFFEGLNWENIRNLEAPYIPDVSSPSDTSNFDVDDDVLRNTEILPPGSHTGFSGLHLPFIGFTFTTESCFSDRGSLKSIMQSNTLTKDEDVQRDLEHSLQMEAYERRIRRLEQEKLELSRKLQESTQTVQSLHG

T5: TSSK1(h) (human, UniProt Q9BXA7 1-367)
T5 sequence (looked up): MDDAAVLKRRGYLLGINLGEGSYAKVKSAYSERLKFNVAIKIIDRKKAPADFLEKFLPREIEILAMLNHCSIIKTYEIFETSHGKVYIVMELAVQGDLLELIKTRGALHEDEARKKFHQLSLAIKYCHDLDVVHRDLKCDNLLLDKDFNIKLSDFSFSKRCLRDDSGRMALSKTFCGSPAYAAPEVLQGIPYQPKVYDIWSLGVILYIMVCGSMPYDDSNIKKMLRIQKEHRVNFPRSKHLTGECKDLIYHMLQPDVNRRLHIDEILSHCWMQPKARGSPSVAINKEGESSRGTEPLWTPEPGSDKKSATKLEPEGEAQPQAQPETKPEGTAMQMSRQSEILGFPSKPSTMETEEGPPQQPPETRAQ


Key:
Assay in all cases: cell-based or functional assay
ASK1(h) = ASK1(h) (human, UniProt Q99683 649-946, limits assumed)
Sequence of ASK1(h) (Q99683 649-946 limits assumed): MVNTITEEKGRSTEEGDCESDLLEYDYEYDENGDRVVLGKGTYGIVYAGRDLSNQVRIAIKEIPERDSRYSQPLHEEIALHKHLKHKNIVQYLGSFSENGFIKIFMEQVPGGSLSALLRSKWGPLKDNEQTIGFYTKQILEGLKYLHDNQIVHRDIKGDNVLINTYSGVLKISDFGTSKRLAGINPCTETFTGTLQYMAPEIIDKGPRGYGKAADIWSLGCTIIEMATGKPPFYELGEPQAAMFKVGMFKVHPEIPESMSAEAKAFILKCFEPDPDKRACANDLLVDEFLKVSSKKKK

LKB1(h) = molecular target: T1, LKB1(h)
PKBγ(h) = PKBγ(h) (human, UniProt Q9Y243 1-479, limits assumed)
Sequence of PKBγ(h) (Q9Y243 whole entry): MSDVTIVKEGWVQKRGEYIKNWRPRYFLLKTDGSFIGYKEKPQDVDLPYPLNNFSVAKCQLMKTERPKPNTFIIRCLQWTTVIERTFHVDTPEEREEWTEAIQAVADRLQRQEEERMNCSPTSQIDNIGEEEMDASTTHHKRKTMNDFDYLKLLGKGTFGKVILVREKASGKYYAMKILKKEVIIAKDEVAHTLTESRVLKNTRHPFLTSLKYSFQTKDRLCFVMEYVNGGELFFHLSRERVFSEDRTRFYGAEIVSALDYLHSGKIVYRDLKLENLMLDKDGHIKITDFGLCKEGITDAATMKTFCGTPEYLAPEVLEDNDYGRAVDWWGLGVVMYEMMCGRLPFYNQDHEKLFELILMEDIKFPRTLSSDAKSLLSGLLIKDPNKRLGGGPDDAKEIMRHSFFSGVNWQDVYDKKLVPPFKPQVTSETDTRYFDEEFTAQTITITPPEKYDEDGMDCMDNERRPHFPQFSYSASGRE

Tec(h)activated = molecular target: T2, Tec(h)activated
NEK6(h) = NEK6(h) (human, UniProt Q9HC98 1-313)
Sequence of NEK6(h) (Q9HC98 whole entry): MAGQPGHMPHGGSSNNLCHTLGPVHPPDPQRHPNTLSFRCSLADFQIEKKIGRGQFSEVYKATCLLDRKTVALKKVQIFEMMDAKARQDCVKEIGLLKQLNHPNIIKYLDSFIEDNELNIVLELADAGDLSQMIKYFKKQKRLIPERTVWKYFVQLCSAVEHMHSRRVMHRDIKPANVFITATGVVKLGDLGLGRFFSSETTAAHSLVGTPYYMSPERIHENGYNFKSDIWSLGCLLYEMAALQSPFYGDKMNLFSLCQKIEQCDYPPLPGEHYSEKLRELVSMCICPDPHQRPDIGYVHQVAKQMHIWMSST

PKCι(h) = molecular target: T3, PKCι(h)
PTK5(h) = PTK5(h) (human, UniProt P42685 1-505, limits assumed)
Sequence of PTK5(h) (P42685 whole entry): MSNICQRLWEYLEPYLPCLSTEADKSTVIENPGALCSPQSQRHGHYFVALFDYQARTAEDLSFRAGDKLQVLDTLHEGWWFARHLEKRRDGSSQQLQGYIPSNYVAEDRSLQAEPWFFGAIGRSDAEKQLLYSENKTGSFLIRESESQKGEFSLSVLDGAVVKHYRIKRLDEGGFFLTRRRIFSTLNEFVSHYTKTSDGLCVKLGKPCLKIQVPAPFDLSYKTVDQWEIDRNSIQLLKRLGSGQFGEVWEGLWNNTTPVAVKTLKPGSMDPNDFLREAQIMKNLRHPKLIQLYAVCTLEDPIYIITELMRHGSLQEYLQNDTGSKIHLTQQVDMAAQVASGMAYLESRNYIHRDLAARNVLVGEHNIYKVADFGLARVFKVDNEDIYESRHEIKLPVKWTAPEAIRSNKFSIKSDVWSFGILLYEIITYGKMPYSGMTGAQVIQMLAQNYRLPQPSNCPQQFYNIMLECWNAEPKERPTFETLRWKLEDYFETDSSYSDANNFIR

MRCKβ(h) = molecular target: T4, MRCKβ(h)
PDGFRα(D842V)(h) = PDGFRα(D842V)(h) (human, UniProt P16234 550-1089, limits assumed)
Sequence of PDGFRα(D842V)(h) (P16234 550-1089 D842V limits assumed): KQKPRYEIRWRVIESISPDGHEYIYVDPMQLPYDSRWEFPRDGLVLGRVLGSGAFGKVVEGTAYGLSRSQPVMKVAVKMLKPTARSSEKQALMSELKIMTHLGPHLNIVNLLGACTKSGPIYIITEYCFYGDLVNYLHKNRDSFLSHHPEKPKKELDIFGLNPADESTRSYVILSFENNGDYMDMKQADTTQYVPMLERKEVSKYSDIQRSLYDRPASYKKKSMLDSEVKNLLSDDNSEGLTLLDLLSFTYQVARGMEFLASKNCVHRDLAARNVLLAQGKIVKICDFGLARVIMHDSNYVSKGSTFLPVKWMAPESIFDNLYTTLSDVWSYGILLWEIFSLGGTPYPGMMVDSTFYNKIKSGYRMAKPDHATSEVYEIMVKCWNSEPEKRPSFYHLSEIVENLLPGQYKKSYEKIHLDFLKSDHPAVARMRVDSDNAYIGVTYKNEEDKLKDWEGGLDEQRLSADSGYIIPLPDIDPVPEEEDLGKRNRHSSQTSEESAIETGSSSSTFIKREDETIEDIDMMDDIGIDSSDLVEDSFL

TSSK1(h) = molecular target: T5, TSSK1(h)
PKBα(h) = PKBα(h) (human, UniProt P31749 1-480, limits assumed)
Sequence of PKBα(h) (P31749 whole entry): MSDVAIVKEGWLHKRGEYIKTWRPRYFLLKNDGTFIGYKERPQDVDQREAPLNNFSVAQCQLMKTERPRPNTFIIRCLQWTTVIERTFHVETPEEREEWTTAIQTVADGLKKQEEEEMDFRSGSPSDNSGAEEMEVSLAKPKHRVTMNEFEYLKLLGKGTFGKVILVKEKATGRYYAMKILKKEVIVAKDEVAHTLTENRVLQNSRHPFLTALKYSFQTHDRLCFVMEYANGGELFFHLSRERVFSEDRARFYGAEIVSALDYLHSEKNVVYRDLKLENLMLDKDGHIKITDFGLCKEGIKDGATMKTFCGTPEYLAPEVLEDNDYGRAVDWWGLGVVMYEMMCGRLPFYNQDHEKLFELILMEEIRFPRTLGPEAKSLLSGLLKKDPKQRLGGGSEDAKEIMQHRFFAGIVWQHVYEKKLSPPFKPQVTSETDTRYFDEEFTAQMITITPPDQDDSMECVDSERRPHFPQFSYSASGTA

Binder | % activity, 100 µM (ASK1(h)) [%] | % activity, 100 µM (LKB1(h)) [%] | % activity, 100 µM (PKBγ(h)) [%] | % activity, 100 µM (Tec(h)activated) [%] | % activity, 100 µM (NEK6(h)) [%] | % activity, 100 µM (PKCι(h)) [%] | % activity, 100 µM (PTK5(h)) [%] | % activity, 100 µM (MRCKβ(h)) [%] | % activity, 100 µM (PDGFRα(D842V)(h)) [%] | % activity, 100 µM (TSSK1(h)) [%] | % activity, 100 µM (PKBα(h)) [%]
KAFAKLAARLYRKALARQLGVAA [MMI-0400] | 69 | 89 | 41 | 29 | 85 | 46 | 129 | 71 | 118 | 79 | 67
FAKLAARLYRKALARQLGVAA [MMI-0300] | 80 | 101 | 20 | 56 | 82 | 68 | 132 | 83 | 114 | 79 | 57
